Measurements taken from patent US8440430, “Modified dicer polypeptide and methods of use thereof” (The Regents of the University of California).

B1: 37ab duplex RNA (dsRNA)
RNA 1: UGAGGUAGUAGGUUGUAUAGUUUGAAAGUUCACGAUU
RNA 2: UCGUGAACUUUCAAACUAUACAACCUACUACCUCAUU
B2: pre-hlet-7 hairpin RNA (ssRNA)
RNA: UGAGGUAGUAGGUUGUAUAGUUUUAGGGUCACACCCACCACUGGGAGAUAACUAUACAAUCUACUGUCUUACC

What was measured:
ΔdsRBD human Dicer = ΔdsRBD human Dicer (Homo sapiens, UniProt Q9UPY3 SEQ:1-1922, del1844-1922); assay: filter; within three-fold of full-length; dsRBD deletion did not significantly affect binding; 5 mM EDTA; conditions: tags: N-terminal His6 removed by site-specific protease, baculovirus/Sf9
Description: (§1) A serial dilution of proteins were incubated in a buffer containing 20 mM Tris-Cl (pH 7.5), 25 mM NaCl, 5 mM EDTA, 1 mM dithiothreitol (DTT), 1% glycerol and ~0.5-1 nM (1500 c.p.m.) of ^32P-labeled duplex RNA substrate (one strand was labeled) at room temperature for 60 min […] After this incubation, 25 µl of each reaction were used for dot-blotting, which was conducted in a dot-blot apparatus equipped with 3 membranes of Tuffryn, Protran and Nytran (from top to bottom). After dried, the bound (on Protran) or free (on Nytran) RNAs were detected and quantified with Phosphoimager (GE Healthcare). Percentage of bound RNAs was calculated by 100 multiplied by the ratio of radioactivity (volumes) detected on the Protran membrane over the total input volumes (radioactivity). The bound RNAs (%) (Y-axle) were plotted against protein concentrations (X-axle). K_d was determined by global fitting to the equation of kobsd = (kmax ×[Dicer])(K_{1/2} + [Dicer])^-1, here $kobsd$ is the observed rate constant at a particular protein concentration, $kmax$ is the maximal rate constant with saturating protein, and K_{1/2} (or K_d) is the protein concentration that provides half the maximal rate. Curve fitting was conducted with KleidaGraph (Synery Software).
(§2) RNA. […] These values are similar to those measured previously (Provost et al, 2002; Vermeulen et al, 2005).

[1] = biological target: wild-type human Dicer (flhDcr) (Homo sapiens, UniProt Q9UPY3 SEQ:1-1922); assay: filter; 5 mM EDTA, no free Mg2+, 25 mM NaCl, pH 7.5, room temperature; conditions: tags: N-terminal His6 removed by site-specific protease, baculovirus/Sf9
Description: as §1, §2

[2] = label: 5'-32P on one strand, perfect duplex with 2-nt 3' overhangs on both ends

ΔdsRBD human Dicer, sequence (Q9UPY3 1-1843, stated change not applied): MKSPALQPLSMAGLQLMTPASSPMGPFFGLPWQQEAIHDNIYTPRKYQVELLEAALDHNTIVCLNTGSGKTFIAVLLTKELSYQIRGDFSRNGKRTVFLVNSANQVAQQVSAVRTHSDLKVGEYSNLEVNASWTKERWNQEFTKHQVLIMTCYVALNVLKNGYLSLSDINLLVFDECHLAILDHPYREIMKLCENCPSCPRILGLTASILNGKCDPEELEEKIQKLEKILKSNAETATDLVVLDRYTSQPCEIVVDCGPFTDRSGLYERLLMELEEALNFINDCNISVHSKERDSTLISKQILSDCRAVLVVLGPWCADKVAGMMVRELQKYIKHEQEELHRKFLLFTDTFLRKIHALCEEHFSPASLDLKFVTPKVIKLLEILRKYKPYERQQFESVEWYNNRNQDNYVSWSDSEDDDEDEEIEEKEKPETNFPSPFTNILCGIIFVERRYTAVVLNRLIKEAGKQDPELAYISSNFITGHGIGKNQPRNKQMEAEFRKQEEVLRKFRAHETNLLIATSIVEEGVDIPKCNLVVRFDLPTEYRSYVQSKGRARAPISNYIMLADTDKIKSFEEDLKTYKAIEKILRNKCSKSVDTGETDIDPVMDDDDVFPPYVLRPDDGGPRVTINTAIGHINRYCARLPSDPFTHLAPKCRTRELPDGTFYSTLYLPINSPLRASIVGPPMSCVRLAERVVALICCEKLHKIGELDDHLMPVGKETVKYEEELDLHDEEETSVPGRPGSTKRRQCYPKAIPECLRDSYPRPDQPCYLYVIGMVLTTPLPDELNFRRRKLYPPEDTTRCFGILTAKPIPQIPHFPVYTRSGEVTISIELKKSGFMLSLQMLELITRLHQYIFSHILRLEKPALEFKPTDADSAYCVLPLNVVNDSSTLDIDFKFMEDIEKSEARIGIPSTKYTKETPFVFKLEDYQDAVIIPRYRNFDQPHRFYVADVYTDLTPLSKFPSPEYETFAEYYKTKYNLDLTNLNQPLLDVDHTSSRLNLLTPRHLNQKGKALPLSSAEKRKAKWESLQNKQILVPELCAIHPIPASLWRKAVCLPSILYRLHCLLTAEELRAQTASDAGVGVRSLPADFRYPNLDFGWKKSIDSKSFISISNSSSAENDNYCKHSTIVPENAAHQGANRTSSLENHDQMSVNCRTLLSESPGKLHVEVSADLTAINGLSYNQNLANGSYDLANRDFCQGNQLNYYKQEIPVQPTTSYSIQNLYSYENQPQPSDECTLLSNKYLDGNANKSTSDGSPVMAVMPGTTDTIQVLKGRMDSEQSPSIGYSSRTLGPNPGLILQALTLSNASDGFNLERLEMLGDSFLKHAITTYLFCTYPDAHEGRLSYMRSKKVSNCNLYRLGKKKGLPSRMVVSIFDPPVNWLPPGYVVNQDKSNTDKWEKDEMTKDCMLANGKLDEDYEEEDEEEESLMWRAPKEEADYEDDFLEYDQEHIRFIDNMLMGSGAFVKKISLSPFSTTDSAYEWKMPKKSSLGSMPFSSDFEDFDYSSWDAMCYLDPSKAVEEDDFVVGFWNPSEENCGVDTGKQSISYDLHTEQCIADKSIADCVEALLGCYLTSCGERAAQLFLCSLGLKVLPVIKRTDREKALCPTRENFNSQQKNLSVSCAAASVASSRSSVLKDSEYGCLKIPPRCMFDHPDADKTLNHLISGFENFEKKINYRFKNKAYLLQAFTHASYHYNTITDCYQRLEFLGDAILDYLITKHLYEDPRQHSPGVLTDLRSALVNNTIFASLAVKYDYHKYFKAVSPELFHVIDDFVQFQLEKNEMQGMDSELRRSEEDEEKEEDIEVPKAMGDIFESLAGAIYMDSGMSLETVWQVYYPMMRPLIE

Binder | Kd relative to full-length Dicer (ΔdsRBD human Dicer; [2]) | Kd [1, 2] | Kd relative to full-length Dicer (ΔdsRBD human Dicer; label: 5'-32P, hairpin) | Kd ([1]; label: 5'-32P, hairpin)
B1 | ≤ 3 fold of full-length Kd (75 nM) | 75 nM | – | –
B2 | – | – | ≤ 3 fold of full-length Kd (30 nM) | 30 nM
